Laboratory results: patent US20060205037A1, “Modified transferrin fusion proteins” (priority 2003, published 2006)

What was measured:
diabetic db/db mice = experiment: overnight fast and IPGTT in diabetic mice after SC administration; type: in vivo; conditions: SC at 9 pm, fasted overnight; GLP-1-Tf 1 or 10 mg
Procedure: A group of diabetic mice were given Tf or GLP-1-Tf via SC administration at 9 pm, fasted overnight and an IPGTT performed the next morning. The fasted Tf-treated animals had lower fasting blood glucose than ad libitum fed animals (238±39 versus 358±23 mg/dl; compare 0 time/fasted animals of FIG. 10c with 0 time/fed animals of FIG. 10a), and additionally, the animals given 1 or […] had lower fasting blood glucose (132±27 mg/dl) than those given Tf alone.

db/db mice = experiment: β-cell proliferation (BrdU) and β-cell mass in db/db mice; type: in vivo; conditions: 10 mg/kg IP, third day
Procedure: db/db mice, 6 per time point, received one IP injection of Tf (10 mg/kg) or GLP-1-Tf (10 mg/kg) and were sacrificed 1, 2 and 3 days later for measurement of β-cell proliferation and 3, 5, 8 and 10 days later for measurement of islet mass. Sixty mg/kg 5-bromo-2-deoxyuridine (BrdU, Sigma) was injected IP 6 hours before sacrifice. BrdU is a thymidine analog that is incorporated during S-phase of cell mitosis. Pancreata were removed, fixed overnight in 4% buffered formalin, processed for embedding in paraffin and histological sections (4 μm) mounted on poly-1-lysine-coated glass slides. BrdU was detected with a BrdU antibody (Sigma, 1:500 and also confirmed with Zymed antibody, 1:250) and BrdU staining kit (Zymed Laboratories Inc). Five to six hundred islets from each condition were then visualized and the number of islets that contained BrdU+ cells as well as the percent BrdU+ nuclei per total number of islet cells was quantified. For insulin staining and determination of β-cell mass histological sections were treated with a guinea-pig insulin antibody (Linco). […] The total pancreatic area and β-cell positive area for every image were quantified using MetaMorph 4.6.3 software (Universal Imaging Inc., West Chester).

B1: Tf: transferrin with the two N-linked glycosylation sites eliminated, expressed in S. cerevisiae; control protein (protein)
chain: VPDKTVRWCAVSEHEATKCQSFRDHMKSVIPSDGPSVACVKKASYLDCIRAIAANEADAVTLDAGLVYDAYLAPNNLKPVVAEFYGSKEDPQTFYYAVAVVKKDSGFQMNQLRGKKSCHTGLGRSAGWNIPIGLLYCDLPEPRKPLEKAVANFFSGSCAPCADGTDFPQLCQLCPGCGCSTLNQYFGYSGAFKCLKDGAGDVAFVKHSTIFENLANKADRDQYELLCLDNTRKPVDEYKDCHLAQVPSHTVVARSMGGKEDLIWELLNQAQEHFGKDKSKEFQLFSSPHGKDLLFKDSAHGFLKVPPRMDAKMYLGYEYVTAIRNLREGTCPEAPTDECKPVKWCALSHHERLKCDEWSVNSVGKIECVSAETTEDCIAKIMNGEADAMSLDGGFVYIAGKCGLVPVLAENYNKADNCEDTPEAGYFAVAVVKKSASDLTWDNLKGKKSCHTAVGRTAGWNIPMGLLYNKINHCRFDEFFSEGCAPGSKKDSSLCKLCMGSGLNLCEPNNKEGYYGYTGAFRCLVEKGDVAFVKHQTVPQNTGGKNPDPWAKNLNEKDYELLCLDGTRKPVEEYANCHLARAPNHAVVTRKDKEACVHKILRQQQHLFGSNVADCSGNFCLFRSETKDLLFRDDTVCLAKLHDRNTYEKYLGEEYVKAVGNLRKCSTSSLLEACTFRRP
Question: B1 was tested. Which fasting blood glucose (diabetic db/db mice) did it give?
Answer: Its fasting blood glucose is 238 ± 39 mg/dL.

Question: And the “islets with 1 or more BRDU+ nuclei” value (db/db mice)?
Answer: Its value is 35%.
